From patent US20070243589A1 (Pfizer, published 2007)

How the values were obtained:
rat IL-22 [1] = target: T1, rat IL-22 (rat, UniProt G3V6X6 34-178); experiment: cell-based or functional assay
T1 sequence: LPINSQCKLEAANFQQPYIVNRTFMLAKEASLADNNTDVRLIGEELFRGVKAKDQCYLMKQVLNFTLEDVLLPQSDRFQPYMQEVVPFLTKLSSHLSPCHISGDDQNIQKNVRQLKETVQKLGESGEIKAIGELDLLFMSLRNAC

human IL-22 [2] = target: T2, human IL-22 (human, UniProt Q9GZX6 34-179); experiment: cell-based or functional assay
T2 sequence: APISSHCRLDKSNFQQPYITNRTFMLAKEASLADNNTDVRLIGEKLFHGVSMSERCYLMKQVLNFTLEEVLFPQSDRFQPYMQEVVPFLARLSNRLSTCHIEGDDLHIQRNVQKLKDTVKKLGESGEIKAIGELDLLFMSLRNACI

murine IL-22 [3] = target: T3, murine IL-22 (murine, UniProt Q9JJY9 34-179); experiment: cell-based or functional assay
T3 sequence: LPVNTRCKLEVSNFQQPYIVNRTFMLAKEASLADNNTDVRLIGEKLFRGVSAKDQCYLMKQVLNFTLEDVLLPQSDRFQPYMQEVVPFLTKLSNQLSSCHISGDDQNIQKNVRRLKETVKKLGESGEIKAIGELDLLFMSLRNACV

monkey IL-22 [4] = target: monkey IL-22 (monkey); experiment: cell-based or functional assay
human IL-22 [5] = target: T2, human IL-22; experiment: SPR (Biacore), antibody amine-coupled to CM5 chip, human IL-22 as analyte, 1:1 model
Protocol: To prepare the biosensor surface for the human monoclonal antibodies, either human monoclonal antibody (356A11 or 368D04) or control antibody PD-1 (#17) were immobilized onto a research-grade carboxymethyl dextran chip (CM5) using standard amine coupling. The surface was activated with EDC/NHS. The capturing antibodies were injected at a concentration of 1 μg/ml in sodium acetate buffer (pH 5.5). Remaining activated groups were blocked with 1.0 M ethanolamine (pH 8.0). The first flow cell was used as a reference surface to correct for bulk refractive index, matrix effects, and non-specific binding. The second, third, and fourth flow cells were coated with the capturing molecule.
The kinetic data were analyzed using BIAevaluation software 3.0.2 applied to a 1:1 model. The apparent dissociation (Kd) and association (Kₐ) rate constants were calculated from the appropriate regions of the sensorgrams using a global analysis. The affinity constants of the interaction between antibody and analyte were calculated from the kinetic rate constants by the following formulae: KD=Kd/Kₐ, where KD is the dissociation constant and KA=Kₐ/Kd, where KA is the association constant.

rat IL-22 [6] = target: T1, rat IL-22; experiment: cell-based or functional assay; remark: listed apart in the source
human IL-22 [7] = target: T2, human IL-22; experiment: cell-based or functional assay; remark: listed apart in the source
murine IL-22 [8] = target: T3, murine IL-22; experiment: cell-based or functional assay; remark: listed apart in the source
monkey IL-22 [9] = target: monkey IL-22 (monkey); experiment: cell-based or functional assay; remark: listed apart in the source
human IL-20 = target: T4, human IL-20 (human, UniProt Q9NYY1 25-176); experiment: BIA (surface plasmon resonance)
T4 sequence (looked up): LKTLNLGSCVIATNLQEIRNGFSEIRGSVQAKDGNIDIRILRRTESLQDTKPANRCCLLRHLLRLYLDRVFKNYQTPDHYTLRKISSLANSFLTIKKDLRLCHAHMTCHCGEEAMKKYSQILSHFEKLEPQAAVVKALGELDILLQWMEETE

human IL-28A = target: T5, human IL-28A (human, UniProt Q8IZJ0 26-200); experiment: BIA (surface plasmon resonance)
T5 sequence (looked up): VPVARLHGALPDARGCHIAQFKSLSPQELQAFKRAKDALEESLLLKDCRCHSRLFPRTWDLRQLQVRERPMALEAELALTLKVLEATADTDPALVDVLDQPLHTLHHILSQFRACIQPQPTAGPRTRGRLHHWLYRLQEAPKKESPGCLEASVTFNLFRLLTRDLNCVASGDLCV

human IL-24 = target: T6, human IL-24 (human, UniProt Q13007 52-206, limits assumed); experiment: BIA (surface plasmon resonance)
T6 sequence (looked up): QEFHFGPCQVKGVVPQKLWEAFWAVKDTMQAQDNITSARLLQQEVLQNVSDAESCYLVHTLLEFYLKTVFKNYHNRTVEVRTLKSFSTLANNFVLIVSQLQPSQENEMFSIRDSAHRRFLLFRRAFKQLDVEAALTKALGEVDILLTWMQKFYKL

human IFN-ω = target: T7, human IFN-ω (human, UniProt P05000 24-195); experiment: BIA (surface plasmon resonance)
T7 sequence (looked up): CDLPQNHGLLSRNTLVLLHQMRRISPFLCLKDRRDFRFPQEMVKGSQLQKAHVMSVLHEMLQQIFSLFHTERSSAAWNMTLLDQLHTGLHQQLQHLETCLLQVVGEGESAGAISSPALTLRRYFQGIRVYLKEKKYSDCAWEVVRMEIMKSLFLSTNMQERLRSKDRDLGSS

human IL-29 = human IL-29 (human, UniProt Q8IU54 20-200); experiment: BIA (surface plasmon resonance)
Sequence of human IL-29 (Q8IU54 20-200 limits assumed): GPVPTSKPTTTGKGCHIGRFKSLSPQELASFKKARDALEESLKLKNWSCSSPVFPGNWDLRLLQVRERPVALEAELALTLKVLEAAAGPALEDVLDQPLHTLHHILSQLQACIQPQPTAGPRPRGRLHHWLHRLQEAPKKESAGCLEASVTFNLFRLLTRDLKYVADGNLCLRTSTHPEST

human IL-19 = target: T8, human IL-19 (human, UniProt Q9UHD0 25-177); experiment: BIA (surface plasmon resonance)
T8 sequence (looked up): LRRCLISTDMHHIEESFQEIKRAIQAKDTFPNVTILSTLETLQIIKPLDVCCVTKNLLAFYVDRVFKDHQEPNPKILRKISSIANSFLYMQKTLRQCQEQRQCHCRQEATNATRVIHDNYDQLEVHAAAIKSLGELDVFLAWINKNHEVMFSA

human IL-10 = human IL-10 (human, UniProt P22301 19-178); experiment: BIA (surface plasmon resonance)
Sequence of human IL-10 (P22301 19-178 limits assumed): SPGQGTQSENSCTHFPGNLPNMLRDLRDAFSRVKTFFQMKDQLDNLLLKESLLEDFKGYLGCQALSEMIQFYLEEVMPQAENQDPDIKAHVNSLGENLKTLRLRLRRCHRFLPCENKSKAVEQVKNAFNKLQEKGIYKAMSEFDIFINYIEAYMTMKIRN

IC50 in GROa cell based assay (rat IL-22 [1]): 0.211 nM | IC50 in GROa cell based assay (human IL-22 [2]): 0.124 nM | IC50 in GROa cell based assay (murine IL-22 [3]): 0.144 nM | IC50 in GROa cell based assay (monkey IL-22 [4]): 0.0896 nM | Ka (human IL-22 [5]): 1.85e+10 M⁻¹ | Kd (human IL-22 [5]): 0.054 nM | koff (human IL-22 [5]): 4.27e-06 s⁻¹ | kon (human IL-22 [5]): 79100 M⁻¹ s⁻¹ | IC50 in BaF3 cell based assay (rat IL-22 [6]): 0.0107 nM | IC50 in BaF3 cell based assay (human IL-22 [7]): 0.00357 nM | IC50 in BaF3 cell based assay (murine IL-22 [8]): 0.00253 nM | IC50 in BaF3 cell based assay (monkey IL-22 [9]): 0.00258 nM | binding result (human IL-20): no binding | binding result (human IL-28A): no binding | binding result (human IL-24): no binding | binding result (human IFN-ω): no binding | binding result (human IL-29): no binding | binding result (human IL-19): no binding | binding result (human IL-10): no binding
B1: 356A11, human monoclonal anti-IL-22 antibody as used in Examples 10 and 11 (antibody, V domains shown)
VH: QVQLVQSGAEVKKPGASVKVSCKASGYTFTNYYMHWVRQAPGQGLEWVGWINPYTGSAFYAQKFRGRVTMTRDTSISTAYMELSRLRSDDTAVYYCAREPEKFDSDDSDVWGRGTLVTVSS
VL: QAVLTQPPSVSGAPGQRVTISCTGSSSNIGAGYGVHWYQQLPGTAPKLLIYGDSNRPSGVPDRFSGSKSGTSASLAITGLQAEDEADYYCQSYDNSLSGYVFGGGTQLTVLG
